In this assay the target is T1, Manduca sexta cadherin protein fragment (CR7–CR12) (Manduca sexta).
T1 construct: Manduca sexta cadherin receptor, fragment CR7–CR12, residues 810–1480; also called cadherin fragment; cadherin receptor fragment
Kind of assay: ELISA; 1 μg of cadherin fragment coated per well; toxin or protoxin dilutions in PBS, 1 h at 37°C; detected with polyclonal anti-Cry1Ab antibody; Scatchard analysis; apparent Kd. The note with it: both partners purified. In general terms: An ELISA detects its analyte on a solid surface through an enzyme-linked reagent.

B1: trypsin-activated Cry1Ab toxin (domain or fragment)
chain: not shown
modifications: Wild-type toxin cut from the protoxin by trypsin. Limits are not given; the conventional Cry1A trypsin core is used (cut after R28, C-terminal end near residue 619). Subspecies is not printed …
For the molecule B1, the Kd was 3.3 ± 0.6 nM.

The values are drawn from article PMC3969221, “Bacillus thuringiensis Cry1A toxins are versatile proteins with multiple modes of action: two distinct pre-pores are involved in toxicity” (Biochemical Journal, 2014).
